# Assay results: article PMC11260460, “A Plasmodium apicoplast-targeted unique exonuclease/FEN exhibits interspecies functional differences attributable to an insertion that alters DNA-binding”
# How the values were obtained:
# [1] = target: T1, PfExo (Plasmodium falciparum 3D7, UniProt O96139 91-577); assay: EMSA; 2 mM Mg2+; EMSA: 400 nM FAM-DNA, binding buffer as printed 200 mM HEPES pH 8.0, 500 mM NaCl, 10 mM DTT, 1 mg/ml BSA, 10% glycerol, 2 mM MgCl2, 30 min on ice, 6% native PAGE; BLI: 1x kinetic buffer in 1x PBS, Octet R8, 1:1 global fit; settings: protein: recombinant, tags: C-terminal 6xHis
# T1 sequence: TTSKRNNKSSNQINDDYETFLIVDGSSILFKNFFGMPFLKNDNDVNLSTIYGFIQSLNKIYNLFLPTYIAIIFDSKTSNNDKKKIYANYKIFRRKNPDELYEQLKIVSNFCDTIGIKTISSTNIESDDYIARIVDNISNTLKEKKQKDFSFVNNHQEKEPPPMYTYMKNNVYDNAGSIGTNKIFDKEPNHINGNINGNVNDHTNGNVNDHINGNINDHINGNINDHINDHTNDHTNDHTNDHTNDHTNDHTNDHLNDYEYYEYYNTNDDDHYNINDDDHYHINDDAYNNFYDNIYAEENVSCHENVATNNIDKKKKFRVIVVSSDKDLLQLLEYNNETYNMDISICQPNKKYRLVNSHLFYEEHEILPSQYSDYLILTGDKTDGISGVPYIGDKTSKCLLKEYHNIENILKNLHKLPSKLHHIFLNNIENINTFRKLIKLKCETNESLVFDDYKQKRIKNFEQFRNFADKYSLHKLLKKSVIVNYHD
# [2] = target: T2, PfExoΔins (Plasmodium falciparum 3D7, UniProt O96139 91-577, del241-393); assay: as above; settings: protein: recombinant, tags: C-terminal 6xHis
# [3] = target: T2, PfExoΔins; assay: BLI; EMSA: 400 nM FAM-DNA, binding buffer as printed 200 mM HEPES pH 8.0, 500 mM NaCl, 10 mM DTT, 1 mg/ml BSA, 10% glycerol, 2 mM MgCl2, 30 min on ice, 6% native PAGE; BLI: 1x kinetic buffer in 1x PBS, Octet R8, 1:1 global fit; settings: protein: recombinant; tags: C-terminal 6xHis; label: 5' biotin on strand 1; blunt
# [4] = target: T1, PfExo; assay: BLI; KD value only in figure; EMSA: 400 nM FAM-DNA, binding buffer as printed 200 mM HEPES pH 8.0, 500 mM NaCl, 10 mM DTT, 1 mg/ml BSA, 10% glycerol, 2 mM MgCl2, 30 min on ice, 6% native PAGE; BLI: 1x kinetic buffer in 1x PBS, Octet R8, 1:1 global fit; settings: protein: recombinant; tags: C-terminal 6xHis; label: 5' biotin on strand 1; blunt
binder,measurement,setting,value
AAAACGTCAACTAGCTTCTCAAACACCTCATATATCTTAA (ssDNA) [ssDNA 5'-3' exo substrate],binding result,"[1]; label: 3' 6-FAM, single strand",binds
AAAACGTCAACTAGCTTCTCAAACAGCTCATATATCTTAA (ssDNA) [ssDNA 3'-5' exo substrate],binding result,"[1]; label: 5' 6-FAM, single strand",binds
Blunt-end dsDNA (14 bp) (dsDNA) DNA 1: CTAGTGTACATGCA DNA 2: TGCATGTACACTAG,binding result,"[2]; label: 3' 6-FAM on strand 1, blunt",no binding
BLI blunt-end dsDNA (34 bp) (dsDNA) DNA 1: CAGTCCGAGCTAGGCAACATACGATAATCCATAC DNA 2: GTATGGATTATCGTATGTTGCCTAGCTCGGACTG,binding signal,[3],~5 fold higher KD than PfExo
same,binding result,[4],binds
5'-flap DNA (dsDNA) DNA 1: AAAACGTCAACTAGCTTCTCAAACAGCTCATATATCTTAA DNA 2: CAGTCCGAGCTAGGCAACATACGATAATCCATAC DNA 3: TTAAGATATATGAGCAGTATGGATTATCGTATGTTGCCTAGCTCGGACTG,binding result,"[2]; label: FAM, 5' flap",no binding
same,binding result,"[1]; label: FAM, 5' flap",binds
